Source: EP4703474A1, “ANTI-LRRC15 ANTIBODY” (priority 2023, dated 2024)
Positions count from the first letter of the chain named.

B1: H02L01-PBD (conjugate)
heavy: EVQLVESGGGLVQPGGSLRLSCAASGFTFRDYYMAWVRQAPGKGLEWVSSIGFDESRTYYADSVKGRFTISRDDSKNTLYLQMNSLRAEDTAVYYCARHGVSYYSGDNWFAYWGQGTLVTVSSASTKGPSVFPLAPSSKSTSGGTAALGCLVKDYFPEPVTVSWNSGALTSGVHTFPAVLQSSGLYSLSSVVTVPSSSLGTQTYICNVNHKPSNTKVDKKVEPKSCDKTHTCPPCPAPEAAGGPSVFLFPPKPKDTLMISRTPEVTCVVVDVSHEDPEVKFNWYVDGVEVHNAKTKPREEQYNSTYRVVSVLTVLHQDWLNGKEYKCKVSNKALAAPIEKTISKAKGQPREPQVYTLPPSREEMTKNQVSLTCLVKGFYPSDIAVEWESNGQPENNYKTTPPVLDSDGSFFLYSKLTVDKSRWQQGNVFSCSVMHEALHNHYTQKSLSLSPGK
light: DIQMTQSPSSLSASVGDRVTITCKSSQGLLYSGDQKNYLAWYQQKPGKAPKLLIYWASTRQSGVPSRFSGSGSGTDFTLTISSLQPEDFATYYCQQYYDPPYTFGQGTKVEIKRTVAAPSVFIFPPSDEQLKSGTASVVCLLNNFYPREAKVQWKVDNALQSGNSQESVTEQDSKDSTYSLSSTLTLSKADYEKHKVYACEVTHQGLSSPVTKSFNRGEC
B2: H02L01-V1-PBD (conjugate)
heavy: B1 heavy with Y103K
light: B1 light

Experiments:
[1] = test system: LRRC15-negative human lung carcinoma cell line HCC827; experiment: In vivo antitumor effect, HCC827 subcutaneous transplant model; details: 0.4 mg/kg, tail vein, on Day 10, female SCID mice, huM25-MMAE at 0.4 mg/kg or 3.6 mg/kg
Description: The antitumor effects of the antibody-drug conjugates were evaluated by using animal models in which cells of the human tumor cell line had been transplanted into immunodeficient mice. 4 to 6 Week-old SCID mice (CB17/Icr-Prkdc[scid]/CrlCrlj, Jackson Laboratory Japan, Inc.) were habituated for 3 days or more under SPF conditions before experimental use. The mice were fed with sterilized solid feed (FR-2, Funabashi Farms Co., Ltd.) and given sterilized tap water (prepared by adding a solution of 5 to 15 ppm sodium hypochlorite). The major and minor diameters of the transplanted tumors were measured twice a week with an electronic digital caliper ([…] Corporation), and the estimated tumor volume was calculated using the following formula. Estimated tumor volume (mm^3) = 1/2 × major diameter (mm) × [minor diameter (mm)]^2 All antibody-drug conjugates were diluted with ABS and administered into the tail vein at doses shown in each Example. In addition, ABS (vehicle) or control hIgG-PBD prepared in Reference Example 4 was administered as the control group, in a similar manner. 5 to 6 Mice were used per group in the experiment. […]

[2] = test system: Triple-negative breast carcinoma cell line HCC1806; experiment: In vivo antitumor effect, HCC1806 subcutaneous transplant model; details: 0.4 mg/kg, tail vein, on Day 7, female SCID mice
Description: (§1) The antitumor effects of the antibody-drug conjugates were evaluated by using animal models in which cells of a human tumor cell line had been transplanted into immunodeficient mice, or cells of a mouse tumor cell line had been transplanted into immunocompetent mice. 4 to 6 Week-old SCID mice (CB17/Icr-Prkdc[scid]/CrlCrlj, Jackson Laboratory Japan, Inc.), NSG mice (NOD.Cg-Prkdcscid Il2rgtm1Wjl/SzJ, Jackson Laboratory Japan, Inc.), or B6J mice (C57BL/6J, Jackson Laboratory Japan, Inc.) were habituated for 3 days or more under SPF conditions before experimental use. The mice were fed with sterilized solid feed and given sterilized tap water. The major and minor diameters of the transplanted tumors were measured twice a week with an electronic digital caliper (Mitutoyo Corporation), and the estimated tumor volume was calculated using the following formula. Estimated tumor volume (mm^3) = 1/2 × major diameter (mm) × [minor diameter (mm)]^2 All antibody-drug conjugates were diluted with ABS and administered into the tail vein at doses shown in each Example. In addition, ABS (vehicle) or control hIgG-PBD prepared in Reference Example 4 was administered as the control group, in a similar manner. 5 to 6 Mice were used per group in the experiment. To analyze the LRRC15 expression in mouse tumor models, immunohistochemical staining of LRRC15 was performed. […]

[3] = test system: LRRC15-positive human glioblastoma cell line U118MG; experiment: In vivo antitumor effect, U118MG subcutaneous transplant model; details: 0.4 mg/kg, tail vein, on Day 17, female SCID mice
Description: as §1, with “experiment.” for “experiment. To analyze the LRRC15 expression in mouse tumor models, immunohistochemical staining of LRRC15 was performed.”

Molecule	antitumor effect (estimated tumor volume) [1]	antitumor effect (estimated tumor volume) [2]	antitumor effect (estimated tumor volume) [3]
B1	antitumor activity higher than that of the vehicle, the control hIgG-PBD, and huM25-MMAE	antitumor activity higher than that of the vehicle	antitumor activity higher than that of the vehicle and the control hIgG-PBD
B2	antitumor activity higher than that of the vehicle, the control hIgG-PBD, and huM25-MMAE	antitumor activity higher than that of the vehicle	antitumor activity higher than that of the vehicle and the control hIgG-PBD
